Patent US20200277405A1, “COMPOSITION FOR ANTIBODY-DRUG CONJUGATE DIRECTED AGAINST TUMOR-CELL ASSOCIATED POLYSIALIC ACID” (Cornell University, priority 2019, published 2020)

B1: mo735: well-known mouse-derived IgG2a monoclonal antibody 735 targeting polysialic acid (antibody, V domains shown)
VH: QIQLQQSGPELVRPGASVKISCKASGYTFTDYYIHWVKQRPGEGLEWIGWIYPGSGNTKYNEKFKGKATLTVDTSSSTAYMQLSSLTSEDSAVYFCARGGKFAMDYWGQGTSVTVSS
VL: DVVMTQTPLSLPVSLGDQASISCRSSQSLVHSNGNTYLYWYLQKPGQSPKPLIYRVSNRFSGVPDRFSGSGSGTDFTLKISRVEAEDLGVYFCFQGTHVPYTFGGGTRLEIK
B2: ch735: chimeric human IgG1 polySia-specific mAb made by swapping variable regions of mouse mAb 735 (antibody, V domains shown)
VH: B1 VH
VL: B1 VL

Assays:
ST8SiaIV KO SW2 cells = assay: Flow cytometry binding to ST8SiaIV knockout cells; type: cell-based, human
Source text: FIGS. 8A-8C depict binding of polySia-specific mAb to ST8SiaII and ST8SiaIV knockout cell lines. […] Data are the geometric mean fluorescence intensity (MFI), with the values reported as the average of three replicates and the error represented as the standard deviation of the mean. […] In the ST8SiaII KO SW2 cells, 73% of the population (FL1-H-) binds mo735 below the level of the wild-type SW2 cells. […] In the ST8SiaIV KO SW2 cells, 68% of the population (FL1-H-) binds mo735 below the level of the wild-type SW2 cells.
CRISPR guide RNAs targeting ST8SiaII (crRNA1: […]; SEQ ID NO: 5) and ST8Sia4 (crRNA1: […]; SEQ ID NO: 6) were purchased from Genscript in the pLentiCRISPR v2 vector. Knockout cell lines were generated in SW2 cells using protocols described by Zhang and colleagues (Shalem et al., “Genome-Scale CRISPR-Cas9 Knockout Screening in Human Cells,” Science 343:84-7 (2014), which is hereby incorporated by reference in its entirety). Briefly, after lentiviral transduction, cells were maintained under selection with 1 μg/mL puromycin for at least 14 days prior to analysis by flow cytometry.
Cancer cells were trypsinized and collected with media, followed by three washes in PBS. […] Cells were washed three times, resuspended in 500 μL of 0.5% BSA in PBS, and analyzed on a BD FACSCalibur flow cytometer using Cell Quest Pro software (BD Biosciences).

cells and tissues = settings: previously published IHC results (Zhang et al.); cited from earlier work
SH-SY5Y cells = assay: Colocalization microscopy, SH-SY5Y; type: cell-based, human; settings: transferrin, LAMP-3, LAMP-1 markers
Protocol: (§1) FIGS. 10A-10E depict internalization of ch735 into polySia-positive cancer cells. […] Nuclei were stained by Hoescht (blue). Scale bar, 10 Fluorescence intensity was measured across the dotted line and normalized to the maximum value in each channel. Arrows indicate regions of colocalization. […] Nuclei were stained by Hoescht. Scale bar, 10 Fluorescence intensity was measured across the dotted line and normalized to the maximum value in each channel. Arrows indicate regions of colocalization. The inset show only the ch735 and DNA channels of the boxed region. […] Scale bar, 10 Fluorescence intensity was measured across the dotted white line and normalized to the maximum value in each channel. […]
FIGS. 12A-12C depict colocalization of mo735 with markers that traffic to endolysosomal compartments. […] Following fixation and permeabilization, LAMP-1 antibody was applied and detected with anti-rabbit AF647 secondary. […] Cross-sectional fluorescence profiles are shown at right with normalized pixel intensity for selected cells (marked with box in left confocal panels) versus distance across the cell for representative cross sections (marked with bar in right confocal panels).
SH—SY5Y or SW2 cells were plated at 20,000 cells/cm^2 on poly-L-lysine coated 35 mm glass bottom dishes and adhered overnight. […] The fluorescence intensity of the plot profile was analyzed using FIJI software. […]

[1] = system: polySia-positive cell lines SH-SY5Y, SW2, H69, and H82; assay: Internalization assay, polySia-positive cell lines; type: cell-based, human; settings: after 1 h at 37° C.; each polySia-positive cell line
Protocol: as §1
To calculate percent internalization, pre-chilled cells were incubated with 50 nM ch735 on ice for 1 h and then washed to remove unbound antibodies. […] Cells were fixed in 2% paraformaldehyde for 20 min and then stained with AF488-labeled antibody against human IgG and analyzed by flow cytometry and FlowJo software. Receptor-antibody complex internalization was calculated using the geometric mean as percent fluorescent intensity loss at 37° C. relative to that on ice. For each sample, the geometric mean fluorescence intensity (MFI) of 10,000 cells was measured in triplicate.

Molecule | population (FL1-H-) binding below the level of wild-type SW2 cells (ST8SiaIV KO SW2 cells) [%] | IHC reactivity with cells and tissues (cells and tissues) | compartments of accumulation after internalization (confocal) (SH-SY5Y cells) | antibody internalized [1] [%]
B1 | 68 | reacted with only a limited number of cells and tissues |  | 
B2 |  |  | rapidly internalized in endosomal/lysosomal compartments | ~40
